Assay results published in patent publication US20250282851A1.

Key:
[1] = target: Gn protein of Rift Valley fever virus (Rift Valley fever virus)
[2] = target: purified truncated Gn protein of Rift Valley fever virus (Rift Valley fever virus)
[3] = target: purified truncated Gn protein of Rift Valley fever virus (Rift Valley fever virus); assay: ELISA, truncated Gn coated at 2 ug/mL, 50 uL 293T expression supernatant

B1: monoclonal antibody A38 (antibody, V domains shown)
VH: VQLVQELGPGLVKPSETLSLTCAVSGYSISSPYSWGWIRQPPGKGLEWIGGVYSSGEIRHLDPSLKSRVTLSLDTSKNQFSLKLNSVTAADTAVYFCASANGGVAQDAFDFWGQGLRVTVSS
VL: QPVLTQPPSLSAPPGASARLPCTLSSDLSVTSLNIYWYQQKSGSAPRLFLYYYSDSDKQLGPGVPSRVSGSKETSSNTALLFISGLQPEDEADYYCQVYDSSAYVLFGGGTRLTVLG
B1 was tested, and the Kd [1] was 0.972 nM, the koff [1] was 0.00013 s⁻¹ and the kon [1] was 133000 M⁻¹ s⁻¹. The EC50 [2] was 4.51 ng/mL and the OD value (OD450 nm-OD630 nm) [3] was 1.4 OD.
